The values below come from patent publication US20190106487A1 (Sanofi, published 2019).

Test [1] concerns the target T1, human IL-1RAcP on 293T/17-FR cells (human, UniProt Q9NPH3 21-570).
T1 sequence (looked up): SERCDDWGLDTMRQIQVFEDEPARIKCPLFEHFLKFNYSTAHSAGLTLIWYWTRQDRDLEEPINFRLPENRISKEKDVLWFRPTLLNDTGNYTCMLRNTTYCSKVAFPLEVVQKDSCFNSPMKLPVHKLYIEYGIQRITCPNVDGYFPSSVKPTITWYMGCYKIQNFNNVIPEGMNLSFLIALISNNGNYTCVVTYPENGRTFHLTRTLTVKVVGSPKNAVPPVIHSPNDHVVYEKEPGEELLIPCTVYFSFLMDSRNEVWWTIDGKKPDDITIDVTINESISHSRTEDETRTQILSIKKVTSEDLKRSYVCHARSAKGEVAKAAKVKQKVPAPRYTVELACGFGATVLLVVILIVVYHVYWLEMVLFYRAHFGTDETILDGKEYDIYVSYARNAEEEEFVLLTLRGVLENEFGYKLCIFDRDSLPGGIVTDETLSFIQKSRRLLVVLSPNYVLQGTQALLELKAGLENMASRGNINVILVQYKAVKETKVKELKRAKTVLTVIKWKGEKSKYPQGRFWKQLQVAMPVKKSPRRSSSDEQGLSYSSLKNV
Description: cell-based or functional assay.

Test [2] has as its target T2, rhIL-1RAcP/Fc Chimera (human, UniProt Q9NPH3 21-359).
T2 construct: also called P013_03; P013-03
T2 sequence (looked up): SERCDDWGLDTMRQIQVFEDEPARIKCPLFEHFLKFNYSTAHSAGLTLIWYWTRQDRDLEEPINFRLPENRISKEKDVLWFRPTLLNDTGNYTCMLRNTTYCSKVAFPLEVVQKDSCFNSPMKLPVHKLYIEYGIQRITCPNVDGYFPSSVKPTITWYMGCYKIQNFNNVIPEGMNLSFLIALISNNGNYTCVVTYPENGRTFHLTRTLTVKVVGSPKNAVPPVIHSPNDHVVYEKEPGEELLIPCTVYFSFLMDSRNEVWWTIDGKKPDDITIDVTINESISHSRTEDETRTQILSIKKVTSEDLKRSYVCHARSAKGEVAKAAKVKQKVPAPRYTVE
Description: ELISA, recombinant purified mAb.

Test [3] deals with T3, mIL1RAcP-Fc (murine, UniProt Q61730 21-359).
T3 construct: also called P013_04; P013-04
T3 sequence (looked up): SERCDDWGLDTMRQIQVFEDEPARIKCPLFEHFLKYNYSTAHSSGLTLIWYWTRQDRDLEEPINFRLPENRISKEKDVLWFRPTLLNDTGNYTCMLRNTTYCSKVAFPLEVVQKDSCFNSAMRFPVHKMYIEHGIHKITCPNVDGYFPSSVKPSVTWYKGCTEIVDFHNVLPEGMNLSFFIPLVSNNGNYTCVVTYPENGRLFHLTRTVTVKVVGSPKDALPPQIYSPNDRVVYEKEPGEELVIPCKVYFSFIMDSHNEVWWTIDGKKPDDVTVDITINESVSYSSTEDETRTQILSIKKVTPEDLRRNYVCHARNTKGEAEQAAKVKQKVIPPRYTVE
Description: ELISA, recombinant purified mAb. On the technique in general: In an ELISA, binding on a coated surface is turned into a signal by an enzyme label.

The target of test [4] is T2, rhIL-1RAcP/Fc Chimera. Description: ELISA, primary supernatant, coated hu-IL-1RAcP-Fc. The procedure, abridged: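 Plates coated with 0.5 μg/mL Fc-tagged human IL-1RAcP; rabbit B-cell supernatant antibodies detected by peroxidase anti-rabbit IgG Fab2 and TMB, absorbance 450/620 nm. Parallel IL12Rβ1-Fc coating served as counterscreen to exclude tag binders.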
In test [5] the target is T3, mIL1RAcP-Fc. Description: ELISA, primary supernatant, coated mu-IL-1RAcP-Fc.

B1: P013.S.01.B.F06 (antibody, V domains shown)
VH: QSVEESGGRLVTPGTPLTLTCTVSGIDLSSDAVGWVRQAPGKGLEYIGIIVSSGETFYASWARGRCTISKTSSTTVDLRITRLTTEDTATYFCARGGPGYSFDTEYAFDPWGPGTLVTVSS
VL: AFEMTQTPASVEVAVGGTVTINCQASQSIGSWLSWYQQKVGQRPKLLISRASTLASGVPSRFKGSGSGTEYTLTISGVQSDDAATFYCQQGATTYDVDNVFGGGTEVVVR
notes: rabbit monoclonal antibody; also called P013.A.00045.E09
On to B1, for which, in test [1], the “functional reporter gene assay (% inhibition), 0.04 µg/mL mAb” value came out at 41%; the “functional reporter gene assay (% inhibition), 0.2 µg/mL mAb” value turned out to be 52%; the “functional reporter gene assay (% inhibition), 1 µg/mL mAb” value is 68%; the “functional reporter gene assay (% inhibition), 5 µg/mL mAb” value was 70%. The “primary supernatant functional assay (% inh.), NF-kB luciferase reporter” value in test [1] came out at 75%. The EC50 (usually the concentration needed to bring the measured effect to its halfway point) in test [2] came to 0.039 µg/mL. Moreover, the EC50 in test [3] came to 0.028 µg/mL. In addition, in test [4], the “hu-IL1RaP ELISA (OD)” value was found to be 2.8 OD. In test [5], the “mu-IL1RaP ELISA (OD)” value amounted to 3.4 OD.

B2: P013.S.02.B.G02 (antibody, V domains shown)
VH: QSLEESGGDLVKPGASLTLTCTASGFSLSSGGMTWVRQAPGKGLEWIGYINTGSGRTYYASWAKGRFIISKTSSTTVSLQMTSLTAADTATYFCAGGLPSDLWGPGTLVTVSS
VL: DIVMTQTPSSVEAAVGGTVTIKCQASQSINSRLAWYQQKPGQPPKLLIYDASTLASGVSSRFSGSGTEFTLTISDLESADGATYYCLSHYLTSSSSYGNAFGGGTEVVVK
notes: rabbit monoclonal antibody; also called P013.A.00014.C07
B2: in test [1], the “functional reporter gene assay (% inhibition), 0.04 µg/mL mAb” value is -2%; the “functional reporter gene assay (% inhibition), 0.2 µg/mL mAb” value was 0%; the “functional reporter gene assay (% inhibition), 1 µg/mL mAb” value came out at 5%; the “functional reporter gene assay (% inhibition), 5 µg/mL mAb” value amounted to 0%. In addition, in test [1], the “primary supernatant functional assay (% inh.), NF-kB luciferase reporter” value was -39%. Besides, the EC50 in test [2] amounted to 0.493 µg/mL. Also, in test [3], the EC50 came out at 0.082 µg/mL. In addition, the “hu-IL1RaP ELISA (OD)” value in test [4] was found to be 3.6 OD. In addition, in test [5], the “mu-IL1RaP ELISA (OD)” value amounted to 3.4 OD.

B3: P013.S.01.B.A02 (antibody, V domains shown)
VH: QSVEESGGRLVTPGTPLTLTCTVSGIDLSSYAMGWVRQAPGKGLEYIGVITSSATTYYASWAKGRFTISKTSSTTVDLRVTSLTTEDTATYFCARGGPGYSTNTHYAFDPWGPGTLVTVSS
VL: AFEMTQTPSSVSEPVGGTVTIKCQASQSIYIYLSWYQQKPGQRPKLLIYDASKLASGVPSRFSGSGSGTEFTLTISGVQSDDAATYYCQQGATTYNVDNVFGGGTEVVVK
notes: rabbit monoclonal antibody; also called P013.A.00003.H11
As to B3, in test [1], the “functional reporter gene assay (% inhibition), 0.04 µg/mL mAb” value was determined as 46%; the “functional reporter gene assay (% inhibition), 0.2 µg/mL mAb” value amounted to 94%; the “functional reporter gene assay (% inhibition), 1 µg/mL mAb” value stood at 95%; the “functional reporter gene assay (% inhibition), 5 µg/mL mAb” value is 98%. In test [1], the “primary supernatant functional assay (% inh.), NF-kB luciferase reporter” value was determined as 92%. In addition, in test [2], the EC50 amounted to 0.042 µg/mL. Moreover, in test [3], the EC50 was found to be 0.025 µg/mL. Further, the “hu-IL1RaP ELISA (OD)” value in test [4] stood at 3.5 OD. Besides, in test [5], the “mu-IL1RaP ELISA (OD)” value was determined as 1.2 OD.

B4: P013.S.01.B.C03 (antibody, V domains shown)
VH: QSVEESGGRLVTPGTPLTLTCTVSGIDLSNYAMSWVRQAPGKGLEWIGSVISGGSTYYATWARGRFTISKSSTTVDLKMTSLTTEDTATYFCARGCPGYNGDKYTFDLWGPGTLVTVSS
VL: AFEMTQTPSSVSEPVGGTVTIKCQASQSIYNYLSWYQQKPGQRPKLLIYRASTLASGVPSRFKGSGSGTEFTLTISGVESADAATYYCQQGATSYDIENPFGGGTEVVVK
notes: rabbit monoclonal antibody; also called P013.A.00133.D11
B4: in test [1], the “functional reporter gene assay (% inhibition), 0.04 µg/mL mAb” value worked out at 54%; the “functional reporter gene assay (% inhibition), 0.2 µg/mL mAb” value was 77%; the “functional reporter gene assay (% inhibition), 1 µg/mL mAb” value worked out at 84%; the “functional reporter gene assay (% inhibition), 5 µg/mL mAb” value was 90%. Moreover, the “primary supernatant functional assay (% inh.), NF-kB luciferase reporter” value in test [1] worked out at 83%. In test [2], the EC50 is 0.032 µg/mL. Moreover, the EC50 in test [3] was determined as 0.332 µg/mL. The “hu-IL1RaP ELISA (OD)” value in test [4] was found to be 3.2 OD. The “mu-IL1RaP ELISA (OD)” value in test [5] was determined as 2.3 OD.
